Experimental data as given in publication PMC5292662, “PKU mutation p.G46S prevents the stereospecific binding of L‐phenylalanine to the dimer of human phenylalanine hydroxylase regulatory domain” (FEBS Open Bio, 2017).
Changes are numbered by the printed parent chain. In names and notes the source's numbering stands.

B1: wt‐MBP‐(pep)Xa‐hPAH‐RD^1–120 fusion protein (domain or fragment, human, UniProt P00439 1-120, looked up)
chain: MSTAVLENPGLGRKLSDFGQETSYIEDNCNQNGAISLIFSLKEEVGALAKVLRLFEENDVNLTHIESRPSRLKKDEYEFFTHLDKRSLPALTNIIKILRHDIGATVHELSRDKKKDTVPW
notes: N-terminal regulatory domain (RD) of human phenylalanine hydroxylase (hPAH), residues 1-120 (stop signal introduced in codon 121), SwissProt P00439; From pMAL‐hPAH‐RD^1–120 (pMAL-c2 vector); a factor Xa cleavage peptide (pep)Xa lies between MBP and the RD; Isolated by SEC as a dimeric and a monomeric fraction; also called MBP‐hPAH‐RD^1–120; wt‐MBP‐hPAH‐RD; source: E. coli, purified (amylose …)
B2: MBP‐hPAH‐G46S‐RD^1–120 fusion protein (domain or fragment, human, UniProt P00439 1-120, looked up)
chain: B1 chain with G46S
notes: From pMAL‐hPAH‐G46S‐RD^1–120; a factor Xa cleavage peptide lies between MBP and the RD; G46S is a mutation found in patients with phenylketonuria; also called hPAH‐G46S‐RD^1–120 dimer fusion protein; source: E. coli, purified (amylose resin, SEC); not shown: MBP, N-terminal, kept

Target: the molecule itself
Assay: SEC; HiLoad Superdex 200 HR column (1.6 cm × 60 cm), 20 mM Na‐Hepes, 0.2 M NaCl, pH 7.0, 0.38 mL·min^−1, 4 °C; masses estimated from standard markers; dimer to monomers

Protein	stoichiometry N
B1	2
B2	2
